Assay results reported in PMC8911618, “Application of β-Glucosidase in a Biphasic System for the Efficient Conversion of Polydatin to Resveratrol” (Molecules, 2022).

Tested on: T1, O=[N+]([O-])c1ccc(O[C@@H]2O[C@H](CO)[C@@H](O)[C@H](O)[C@H]2O)cc1
T1 construct: signal peptide removed, starts at residue 29 with added Met; C-terminal His6 (reverse primer), pQE30, E. coli JM109, Ni-NTA
Experiment: purified protein
Format: biochemical, Sphingomonas sp. ATCC 31555
Settings: McIlvaine buffer, pH 5.5, 45 °C, 0.1–20 mM pNPG

SpBGL1 (Sphingomonas sp. ATCC 31555) was tested, and the Km was 13.09 ± 3.43 mM.
